US7173007B1, “Therapy for microbial infections” (The Regents of the University of California, priority 2003, dated 2007)

B1: cathelin-like protein: recombinant human cathelin-like domain of hCAP18, residues 31-131 of SEQ ID NO:2, expressed in E. coli, His-tag cleaved by enterokinase (protein, listed as Homo sapiens)
chain: QVLSYKEAVLRAIDGINQRSSDANLYRLLDLDPRPTMDGDPDTPKPVSFTVKETVCPRTTQQSPEDCDFKKDGLVKRCMGTVTLNQARGSFDISCDKDNKR
B2: hCAP18/LL-37: recombinant human full-length cathelicidin, residues 31-170 of SEQ ID NO:2, inactive precursor (protein, listed as Homo sapiens)
chain: QVLSYKEAVLRAIDGINQRSSDANLYRLLDLDPRPTMDGDPDTPKPVSFTVKETVCPRTTQQSPEDCDFKKDGLVKRCMGTVTLNQARGSFDISCDKDNKRFALLGDFFRKSKEKIGKEFKRIVQRIKDFLRNLVPRTES

Tests used:
[1] = molecular target: T1, human liver cathepsin L (Homo sapiens, UniProt P07711); assay: Proteinase activity inhibition assay (hydrolysis of Z-Phe-Arg-AMC); assay type: biochemical
T1 construct: human liver cathepsin L (Calbiochem, Calif.); purchased Calbiochem; host or cells: human liver
T1 sequence (P07711 114-288 limits assumed): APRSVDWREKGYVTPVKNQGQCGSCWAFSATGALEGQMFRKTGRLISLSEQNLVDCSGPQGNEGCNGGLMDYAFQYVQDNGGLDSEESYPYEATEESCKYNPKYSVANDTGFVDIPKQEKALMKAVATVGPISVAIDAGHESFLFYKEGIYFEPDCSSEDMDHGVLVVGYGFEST
T1 sequence (P07711 292-333 limits assumed): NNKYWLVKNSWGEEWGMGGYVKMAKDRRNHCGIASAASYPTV
Description: FIG. 2 show the proteinase inhibitory activity of recombinant cathelin-like protein. Hydrolysis of the fluorogenic substrate Z-Phe-Arg-AMC by cathepsin L (protease alone), and in the presence of cathelin-like protein (protease+cathelin). […] Slopes, intercepts, and correlation coefficients were calculated by linear regression. Data were recorded 10 times over 30 min and are representative of two experiments.
Proteinase activity inhibition assay. Proteinase inhibitory activity of recombinant cathelin-like protein was assayed spectrofluorometrically by measuring its inhibitory action against human liver cathepsin L (Calbiochem, Calif.). For the reaction assay, cathepsin L (0.1 mU) in the assay buffer ([…] sodium acetate, 60 mM acetic acid, 8 mM dithiothreitol, and 4 mM EDTA, pH 5.5, supplemented with 0.1% BRIJ 35) was preincubated for 2 min at 30° C. with 10^−6 M cathelin-like protein before adding […] of substrate Z-Phe-Arg-7-amido-4-methylcoumarin (Calbiochem). When hydrolyzed by cathepsin L, this substrate releases highly fluorescent 7-amido-4-methylcoumarin (AMC). AMC intensity was determined using spectrophotometer at 370 nm excitation and an emission wavelength of 460 nm. One unit was defined as the amount of enzyme that will hydrolyze 1.0 mmol of Z-Phe-Arg-AMC per min at 25° C., pH 5.5.
Proteinase inhibitory activity. To evaluate the possible protease inhibitory activity action of cathelin-like protein, the activity of human cathepsin L was measured in the presence or absence of recombinant cathelin-like protein using the fluorescent substrate Z-Phe-Arg-AMC.

[2] = system: MRSA (ATCC 33591); assay: Radial diffusion (inhibition zone) assay; assay type: cell-based, Staphylococcus aureus; conditions: MRSA
Description: (§1) FIGS. 3A–C show Growth inhibition of MRSA, E. coli, and P. aeruginosa by cathelin-like protein. (a) Inhibition zone ssay on tryptone/agarose plates with MRSA. Clear circles show lack of bacterial growth. Lanes 1, 3, 5, bottom row: cathelin-like protein at […], 16 μM, respectively. Lane 2, top row:[…] of His-tagged cathelin-like protein before cleavage. Lane 4, top: enterokinase enzyme alone. All assays were performed in duplicate and repeated three times. (b), (c) CFU assay: growth inhibition of (b) MRSA and (c) E. coli, cultured in 10 mM phosphate and 1% TSB (pH 7.4) and then supplemented with different concentrations of human cathelin-like protein.
Antimicrobial assays. E. coli (ATCC 25922), Pseudomonas aeruginosa (ATCC 8427), Salmonella typhimurium (ATCC 13311), Proteus vulgaris (ATCC 8427), Staphylococcus epidermidis (ATCC 12228), and MRSA (ATCC 33591) isolates were maintained on trypticase soy broth (TSB) agar plates. Individual colonies were selected and cultured overnight in TSB, subcultured once at 1:50 in fresh TSB, and then grown to stationary phase for use in all experiments. The radial diffusion assay was performed in 0.5% agarose and 0.75% tryptone brought to ebullition and cooled to 43° C., and then mixed with […] of bacterial suspension and poured into a 10 cm Petri dish. […]

[3] = system: E. coli (ATCC 25922); assay: Radial diffusion (inhibition zone) assay; assay type: cell-based
Description: (§2) Antimicrobial assays. E. coli (ATCC 25922), Pseudomonas aeruginosa (ATCC 8427), Salmonella typhimurium (ATCC 13311), Proteus vulgaris (ATCC 8427), Staphylococcus epidermidis (ATCC 12228), and MRSA (ATCC 33591) isolates were maintained on trypticase soy broth (TSB) agar plates. Individual colonies were selected and cultured overnight in TSB, subcultured once at 1:50 in fresh TSB, and then grown to stationary phase for use in all experiments. The radial diffusion assay was performed in 0.5% agarose and 0.75% tryptone brought to ebullition and cooled to 43° C., and then mixed with […] of bacterial suspension and poured into a 10 cm Petri dish. A series of small wells (diameter, 3 mm) were punched in the plate after the agarose solidified. Two microliters of test samples were applied in each well. Plates were incubated at 37° C. overnight to allow visible growth of bacteria. Antibacterial activity was indicated by the clear zone (no bacterial growth) around the well.
(§3) Antimicrobial activity of recombinant cathelin-like protein. Recombinant cathelicidins were tested for antimicrobial activity using a standard radial diffusion assay. Different concentrations of the cathelin-like protein were loaded into wells on assay plates containing Gram-positive MRSA, S. epidermidis, and strains of the Gram-negative bacterial species E. coli, S. enteritidis, P. vulgaris, and P. aeruginosa. […] Similarly, cathelin-like protein inhibited growth of S. epidermidis ([…]) but not S. enteritidis or P. vulgaris.

[4] = system: Proteus vulgaris (ATCC 8427); assay: Radial diffusion (inhibition zone) assay; assay type: cell-based; conditions: P. vulgaris
Description: as §2, §3

[5] = system: Pseudomonas aeruginosa (ATCC 8427); assay: Radial diffusion (inhibition zone) assay; assay type: cell-based; conditions: P. aeruginosa
Description: as §2, §3

[6] = system: S. enteritidis; assay: Radial diffusion (inhibition zone) assay; assay type: cell-based
Description: as §2, §3

[7] = system: Staphylococcus epidermidis (ATCC 12228); assay: Radial diffusion (inhibition zone) assay; assay type: cell-based; conditions: S. epidermidis
Description: as §2, §3

[8] = system: E. coli; assay: Colony-forming assay (CFU), liquid phase; assay type: cell-based; design: unit of the concentration uncertain; conditions: 10 mM phosphate, 1% TSB
Description: as §1
(§4) The colony-forming assay (CFU) was performed. Bacterial cultures (E. coli or MRSA) were collected at the logarithmic phase of growth in TSB, washed twice with phosphate-buffered saline, pH 7.4, and diluted to 104 CFU per ml in 10 mM phosphate buffer, pH 7.4, Na2HPO4/NaH2PO4-1% TSB (g per 1). Forty-five microliters of bacterial suspension were mixed with […] of H2O (control) or with […] of different concentrations of cathelin-like proteins, and the mixture was incubated at 37° C. Every 30 min, a […] aliquot of the reaction mixture was plated directly onto a TSB agar plate and then incubated at 37° C. overnight for enumeration of CFU. Data are reported as growth index=final CFU/CFU in initial inoculum. […]

[9] = system: MRSA; assay: Colony-forming assay (CFU), liquid phase; assay type: cell-based, Staphylococcus aureus; conditions: 10 mM phosphate, 1% TSB, pH 7.4
Description: as §1, §4

Row | Molecule | slope of fluorescence generation (linear regression) ([1]; cathepsin L + cathelin-like protein, cathepsin L alone slope 1.31) | hydrolytic activity of cathepsin L inhibited by ([1]; protein added at final concentration of 10^-6 M, substrate Z-Phe-Arg-AMC) | minimal inhibitory activity against growth, concentration [2] | minimal inhibitory activity against growth, concentration [3] | growth inhibition [4] | growth inhibition [5] | growth inhibition [6] | minimal inhibitory activity against growth, concentration [7] | effect on growth (CFU) ([8]; 16 (unit uncertain), pH 7.4, compared to untreated controls) | effect on growth (CFU) ([9]; concentration not given) | cathepsin L inhibitory activity ([1]; parallel experiments) | minimal inhibitory activity against growth, concentration [4] | minimal inhibitory activity against growth, concentration [5] | minimal inhibitory activity against growth, concentration [6] | effect on growth (CFU) ([8]; 32 (unit uncertain), pH 7.4) | effect on growth (CFU) [9]
1 | B1 | 0.71 | 46% | 32 mM | 16 mM | not | did not inhibit growth | not | 32 mM | marked growth inhibition | decreased MRSA CFU for the first 15 min and then was bacteriostatic | – | – | – | – | – | –
2 | B2 | – | – | greater than 64 mM | greater than 64 mM | – | – | – | greater than 64 mM | – | – | did not demonstrate inhibitory activity | greater than 64 mM | greater than 64 mM | greater than 64 mM | did not show any activity | did not show any activity
